B1: 6NMW (parent)
chain: QGDIVVALYPYDGIHPDDLSFKKGEKMKVLEEHGEWWKAKSLLTKKEGFIPSNYVAKLN

Variants of: B1
Assay: folding stability dG (cDNA display proteolysis); higher = more stable
Conditions: PBS, room temperature

| Variant | folding stability dG [kcal/mol] |
| --- | --- |
| M27H | -0.396 |
| M27V | 0.125 |
| M27Q | -0.878 |
| M27I | 1.74 |
| M27W | -0.174 |
| M27F | 3.72 |
| M27C | 0.54 |
| M27Y | -0.162 |
| K26A | 2.78 |
| K26M | 4.51 |
| K26V | 4.19 |
| K26C | 4.34 |
| K26N | 2.15 |
| K26W | 4.72 |
| K26E | 2.52 |
| K26D | 0.255 |
| K26H | 4.3 |
| K26Q | 3.56 |
| K26S | 2.3 |
| K26T | 3.12 |
| K26Y | 4.84 |
| K26P | 2.39 |
| K26G | 1.11 |
| K26F | 4.75 |

| Variant | folding stability dG [kcal/mol] |
| --- | --- |
| K26I | 4.68 |
| E31C | 4.09 |
| E31W | 3.2 |
| E31T | 2.69 |
| E31M | 3.05 |
| E31F | 3.14 |
| E31Q | 3.11 |
| E31Y | 3.07 |
| E31H | 2.63 |
| E31K | 2.67 |
| E31A | 3.46 |
| E31D | 3.05 |
| E31L | 2.67 |
| E31I | 2.98 |
| E31V | 2.64 |
| E31G | 2.77 |
| E31R | 2.56 |
| E31P | -0.549 |
| L30C | 2.42 |
| L30F | 2.37 |
| L30H | 0.943 |
| L30G | 0.263 |
| L30W | 1.5 |
| L30A | 1.01 |

| Variant | folding stability dG [kcal/mol] |
| --- | --- |
| L30K | 0.883 |
| L30I | 3.29 |
| L30S | 1.5 |
| L30E | 1.21 |
| L30M | 2.85 |
| L30D | 0.53 |
| L30N | 0.519 |
| L30T | 2.04 |
| L30R | 0.866 |
| L30V | 2.34 |
| L30Y | 2.27 |
| L30Q | 1.56 |
| E25F | -0.064 |
| E25I | -0.618 |
| E25H | 0.959 |
| E25Q | 0.918 |
| E25L | -0.25 |
| E25R | 0.331 |
| E25N | 0.344 |
| E25V | -0.121 |
| E25Y | 0.16 |
| E25C | 1.3 |
| E25M | 0.74 |
| E25T | 0.615 |

| Variant | folding stability dG [kcal/mol] |
| --- | --- |
| E25S | 0.621 |
| E25A | 1.21 |
| E25G | -0.389 |
| E25D | 2.36 |
| E25W | 1.22 |
| K28G | 1.31 |
| K28W | 4.43 |
| K28A | 3.21 |
| K28D | 1.21 |
| K28C | 3.9 |
| K28T | 3.27 |
| K28R | 4.26 |
| K28M | 4.6 |
| K28N | 2.02 |
| K28H | 3.02 |
| K28Y | 4.2 |
| K28E | 4.07 |
| K28F | 3.91 |
| K28S | 2.77 |
| K28V | 4.85 |
| V29T | 0.988 |
| V29A | 0.496 |
| V29R | 0.08 |
| V29Y | 0.219 |

| Variant | folding stability dG [kcal/mol] |
| --- | --- |
| V29P | 0.224 |
| V29S | -0.702 |
| V29L | 4.64 |
| V29K | 1.25 |
| V29W | -0.028 |
| V29M | 1.93 |
| V29F | 1.05 |
| V29Q | 0.108 |
| V29C | 1.16 |
| G24S | 1.3 |
| G24T | 0.282 |
| G24Q | 0.576 |
| G24R | 0.941 |
| G24Y | 2.25 |
| G24W | 2.51 |
| E35A | 4.01 |
| E35C | 4.75 |
| E32Y | 4.42 |
| E32L | 4.21 |
| E32R | 4.29 |
| E32T | 3.95 |
| E32W | 3.48 |
| E32V | 4.48 |
| E32K | 4.72 |

| Variant | folding stability dG [kcal/mol] |
| --- | --- |
| E32H | 3.54 |
| E32I | 4.6 |
| E32P | 2.54 |
| E32D | 4.38 |
| E32N | 3.83 |
| E32C | 4.44 |
| E32G | 3.33 |
| E32Q | 4.09 |
| E32M | 4.65 |
| E32A | 4.31 |
| E32F | 4.1 |
| H33R | 3.41 |
| H33N | 3.62 |
| H33L | 3.41 |
| H33M | 3.29 |
| H33K | 3.38 |
| H33C | 4.43 |
| H33D | 2.75 |
| H33V | 3.16 |
| H33G | 3.24 |
| H33Y | 3.6 |
| H33F | 3.74 |
| H33A | 3.01 |
| H33P | 1.43 |

| Variant | folding stability dG [kcal/mol] |
| --- | --- |
| H33I | 3.23 |
| H33W | 3.34 |
| H33Q | 3.06 |
| H33T | 3.12 |
| G34I | 1.4 |
| G34M | 1.59 |
| G34H | 1.67 |
| G34T | 1.48 |
| G34D | 1.96 |
| G34E | 1.86 |
| G34P | 1.5 |
| G34N | 2.22 |
| G34L | 1.52 |
| G34Q | 1.74 |
| G34Y | 1.45 |
| G34W | 1.24 |
| G34A | 2.02 |
| G34S | 2 |
| G34K | 1.84 |
| G34V | 1.41 |
| G34R | 1.65 |
| G34C | 2.75 |
| G34F | 1.15 |

— the MegaScale stability set (Tsuboyama et al. 2023)
